What is called stoichiometry N is the number of molecules, sites or subunits per partner or assembly.

The target in data set [1] is Chlamydomonas reinhardtii ATG3, wild type (Chlamydomonas reinhardtii). Description: non-reducing SDS-PAGE; purified ATG3 (about 2.5-3 ug) in 50 mM Tris-HCl pH 7.5, 25 °C, untreated or treated with DTTred, GSH, DTTox, H2O2 or Cu2+; stopped with βME-free loading buffer, 5 min at 65 °C; 12% or 15% gels, Coomassie; monomer against disulfide-linked dimer.
Data set [2] deals with the molecule itself. Described as above.

“Chlamydomonas reinhardtii ATG3, wild type (enzyme)” showed a stoichiometry N in data set [1] of 2.

B1: Saccharomyces cerevisiae ATG3, wild type (enzyme, UniProt P40344 1-310, looked up)
chain: MIRSTLSSWREYLTPITHKSTFLTTGQITPEEFVQAGDYLCHMFPTWKWNEESSDISYRDFLPKNKQFLIIRKVPCDKRAEQCVEVEGPDVIMKGFAEDGDEDDVLEYIGSETEHVQSTPAGGTKDSSIDDIDELIQDMEIKEEDENDDTEEFNAKGGLAKDMAQERYYDLYIAYSTSYRVPKMYIVGFNSNGSPLSPEQMFEDISADYRTKTATIEKLPFYKNSVLSVSIHPCKHANVMKILLDKVRVVRQRRRKELQEEQELDGVGDWEDLQDDIDDSLRVDQYLIVFLKFITSVTPSIQHDYTMEGW
notes: ATG3 (E2-like enzyme of the ATG8 conjugation system), Saccharomyces cerevisiae; catalytic Cys234; also called ScATG3; ScATG3^WT
As for B1, the “stoichiometry N” value in data set [2] was 2.

The record behind these values is article PMC10756753, “Redox-mediated activation of ATG3 promotes ATG8 lipidation and autophagy progression in Chlamydomonas reinhardtii” (Plant Physiology, 2023).
